From publication PMC5436742, “Structural models of the different trimers present in the core of phycobilisomes from Gracilaria chilensis based on crystal structures and sequences” (PLoS ONE, 2017)

Biological target: the molecule itself
Test: SEC; 50 μL of 1 mg/mL purified APC on Superdex200 HR/30, 5 mM phosphate buffer pH7, 0.5 ml/min, calibrated with BioRad standards, elution followed at 651 and 280 nm

B1: Allophycocyanin αβ heterodimer from Gracilaria chilensis (complex)
chain 1: MSIITKSIVNADAEARYLSPGELDRIKSFVLSGQRRLRIAQILTDNRELIVKQGGQQLFQKRPDVVSPGGNAYGEEMTATCLRDLDYYLRLVTYGIVAGDVTPIEEIGLVGVKEMYNSLGTPISGVAEGVRSMKNVACSLLAGEDSAEAGFYFDYTLGAMQ
chain 2: MQDAITSVINAADVQGRYLDDNSLDKLRGYFQTGELRVRASATIAANAATIIKDSVAKALLYSDITRPGGNMYTTRRYAACIRDLDYYLRYATYGMLAGDPSILDERVLNGLKETYNSLGVPIGATIQAVQAMKEVTSSLVGPDAGKEMGVYFDYICSGLS
modifications: phycocyanobilin bound to cysteine 81 | phycocyanobilin bound to cysteine 81; methyl-Asn71 (Asm71)
notes: Allophycocyanin α subunit (gene apcA), Gracilaria chilensis; 161 residues; as the chain of m1; Allophycocyanin β subunit (gene apcB), Gracilaria chilensis; as the chain of m2; The αβ heterodimer is the unit that associates with itself into the trimer (αβ)3; also called APC; heterodimer αβ; source: purified from Gracilaria chilensis (method in S4 File)
  stoichiometry N: 3
